Paper PMC5333627

Experiments:
His-Jo (S. pneumoniae) [1] = experiment: covalent complex formation seen by SDS-PAGE; Jo and In partners at 25 μM, pH 5, 20 °C, 60 min; proportion of complex normalised to 100%
His-Jo (S. pneumoniae) [2] = experiment: covalent complex formation seen by SDS-PAGE; Jo and In partners at 25 μM, pH 6, 20 °C, 60 min; proportion of complex normalised to 100%
His-Jo (S. pneumoniae) [3] = experiment: covalent complex formation seen by SDS-PAGE; Jo and In partners at 25 μM, pH 7, 20 °C, 60 min; proportion of complex normalised to 100%
His-Jo (S. pneumoniae) [4] = experiment: covalent complex formation seen by SDS-PAGE; Jo and In partners at 25 μM, pH 8, 20 °C, 60 min; proportion of complex normalised to 100%
His-Jo (S. pneumoniae) [5] = experiment: covalent complex formation seen by SDS-PAGE; 10 μM purified His-Jo and His-In, 50 mM Tris pH 8.0, 200 mM NaCl, 20 °C; 90 min; bands quantified with ImageJ
His-Jo (S. pneumoniae) [6] = experiment: covalent complex formation seen by SDS-PAGE; 10 μM purified His-Jo and His-In, 50 mM Tris pH 8.0, 200 mM NaCl, 20 °C; 180 min; bands quantified with ImageJ
CbpE-Jo (S. pneumoniae) = experiment: confocal fluorescence microscopy of live cells; live pneumococcal cells expressing CbpE-Jo or CbpE-In incubated with exogenous His-GFP-In or PBS, extensive washes; mean maximal GFP intensity of five frames, autofluorescence subtracted
His-Jo (S. pneumoniae) [7] = experiment: covalent complex formation seen by SDS-PAGE; His-Jo and In co-expressed in E. coli cytoplasm (pETDuet, IPTG 3 h at 37 °C); crude lysate on denaturing SDS-PAGE, Coomassie blue

Substance: His-In (domain or fragment)
- percent of complex reconstituted (His-Jo (S. pneumoniae) [1]): 18%
- percent of complex reconstituted (His-Jo (S. pneumoniae) [2]): 90%
- percent of complex reconstituted (His-Jo (S. pneumoniae) [3]): 100%
- percent of complex reconstituted (His-Jo (S. pneumoniae) [4]): 100%
- percent of complex reconstituted (His-Jo (S. pneumoniae) [5]): 60%
- percent of complex reconstituted (His-Jo (S. pneumoniae) [6]): 100%

Substance: His-GFP-In (domain or fragment)
- fluorescence signal of the cells (arbitrary units (AU)) (CbpE-Jo (S. pneumoniae)): 550

Substance: In (domain or fragment)
- stoichiometry N (His-Jo (S. pneumoniae) [7]): 1
